What all share (type): binding
The nature of assay [1]: Fluorescence titration of Bbp muteins with digitoxin. The note with it: 1 μM mutein, PBS with 1 mM EDTA, 25° C., read-out: Kd, ligand digitoxin. On the procedure:
(§1) The ligand binding properties of muteins DigA, DigA16 and also of the recombinant bilin-binding protein (encoded by SEQ ID NO:16) were determined by means of the method of fluorescence titration. In this case, the decrease in intrinsic tyrosine and/or tryptophan fluorescence of the protein forming a complex with the ligand was measured. The measurements were carried out in a fluorimeter, type LS 50 B (Perkin Elmer) at an excitation wavelength of 295 nm (slit width 4 nm) and an emission wavelength of 345 nm (slit width 6 nm). The ligands used were digoxigenin (Fluka), digoxin (Fluka), digitoxigenin (Fluka), digitoxin (Fluka), testosterone (Sigma), ouabain (Fluka), and 4-aminofluorescein (Fluka).
(§2) The buffer system used was PBS with the addition of 1 mM EDTA. […] The concentration was determined by means of absorption at 280 nm using calculated extinction coefficients of 53580 M^−1 cm^−1 for DigA and DigA16 (Wisconsin Software Package, Genetics Computer Group). For Bbp, the calculated extinction coefficient of 54150 M^−1 cm^−1, corrected in the presence of guanidinium chloride according to Gill and von Hippel (Anal. Biochem. 182 (1989), 319–326) was used. […]
(§3) Here, F means the normalized fluorescence intensity and [L]t the total ligand concentration in the particular titration step. […]

Assay [2] in a line: Fluorescence titration of Bbp muteins with ouabain. On the procedure:
as §1, §2, §3

A short description of assay [3]: Fluorescence titration of Bbp muteins with digoxin. Conditions: 1 μM mutein, PBS with 1 mM EDTA, 25° C., read-out: Kd, ligand digoxin. On the procedure: as §1, §2, §3
The nature of assay [4]: Sandwich ELISA detecting digoxigenin groups with DigA16-alkaline phosphatase fusion proteins. The note with it: p-nitrophenyl phosphate hydrolysis, 405 nm, FIG. 3. From the text: Here, the digoxigenin groups were coupled on the one hand to bovine serum albumin (BSA, squares) or, on the other hand, to chicken egg albumin (ovalbumin, triangles) The control data shown are those obtained when using underivatized bovine serum albumin and the fusion protein encoded by pBBP27 (open circles). The enzymatic activity corresponding to the particular bound fusion protein was monitored spectrophotometrically at 405 nm on the basis of p-nitrophenyl phosphate hydrolysis. Curve fitting was carried out by non-linear regression with the aid of the Kaleidagraph computer program (Abelbeck Software) by means of the equation [P·L]=[L]t[P]t/(Kd+[P]t)
Here, [P]t corresponds to the total fusion protein concentration used in the particular microtiter plate well. [P·L] is determined on the basis of the enzymatic activity of alkaline phosphatase. […]
For detecting digoxigenin groups in a sandwich ELISA, the wells in in each case two rows of a microtiter plate (ELISA strips, 2×8 well with high binding capacity, F-type, Greiner) were filled in each case with 100 μl of a 100 μg/ml solution of the BSA-digoxigenin conjugate or the ovalbumin-digoxigenin conjugate in PBS and incubated at RT overnight. […] The fusion proteins bound to the digoxigenin groups were finally detected by means of alkaline phosphatase-catalyzed hydrolysis of p-nitrophenyl phosphate. […]
For orientation: ELISA stands for enzyme-linked immunosorbent assay.

A short description of assay [5]: Fluorescence titration of Bbp muteins with testosterone. The note with it: 1 μM mutein, PBS with 1 mM EDTA, 25° C., read-out: Kd, ligand testosterone. On the procedure: as §1, §2, §3
A short description of assay [6]: Fluorescence titration of Bbp muteins with digitoxigenin. On the procedure:
as §1, §2, §3

Assay [7] can be described thus: Fluorescence titration of Bbp muteins with digoxigenin. How it is done: as §1, §2, §3
A short description of assay [8]: Fluorescence titration of Bbp muteins with 4-aminofluorescein. Conditions: 1 μM mutein, PBS with 1 mM EDTA, 25° C., read-out: Kd, ligand 4-aminofluroescein. How it is done: as §1, §2, §3

Residue numbers refer to the chain shown, from its start.

B1: DigA16: affinity-improved mutein of the bilin-binding protein derived from DigA, encoded by SEQ ID NO:15 (polypeptide SEQ ID NO: 23) (protein)
chain: DVYHDGACPEVKPVDNFDWSQYHGKWWQVAAYPDHITKYGKCGWAEYTPEGKSVKVSRYSVIHGKEYFSEGTAYPVGDSKIGKIYHSYTIGGVTQEGVFNVLSTDNKNYIIGYFCSYDEDKKGHMDLVWVLSRSMVLTGEAKTAVENYLIGSPVVDSQKLVYSDFSEAACKVNN
On to B1, for which the Kd in assay [1] was 2.7 ± 2 nM; in assay [2] (1 μM mutein, PBS with 1 mM EDTA, 25° C., read-out: Kd, ligand ouabain), over 10000 nM; in assay [3], 31.1 ± 3.2 nM; in assay [5] it was over 10000 nM; in assay [6] (1 μM mutein, PBS with 1 mM EDTA, 25° C., read-out: Kd, ligand digitoxigenin), 2.8 ± 2.7 nM; in assay [7] (fluorescence titration, 1 μM mutein, PBS with 1 mM EDTA, 25° C., read-out: Kd, ligand digoxigenin), 30.2 ± 3.6 nM. Moreover, the Kd in assay [8] is over 10000 nM. For the same molecule, the “binding of ouabain (FIG. 1, in words)” value in assay [2] (FIG. 1) is reported as “no binding is observed”. The “binding of the digoxigenin group as conjugate with BSA and with ovalbumin in ELISA (in words)” value in assay [4] was “context-independent”. Further, in assay [6] (FIG. 1), the “binding of digitoxigenin compared with digoxigenin (FIG. 1, in words)” value is “bound even tighter than digoxigenin”.

B2: DigA: mutein of the bilin-binding protein selected for digoxigenin binding, SEQ ID NO:12 (amino acid sequence SEQ ID NO: 21) (protein)
chain: B1 chain with Q28E, A31K, D34H, I36E, T37R
For the molecule B2, the Kd was determined as 200 ± 34 nM in assay [3]; 295 ± 36 nM in assay [7] (determined according to Example 3, read-out: affinity between the mutein and digoxigenin).

For the origin of these results see patent US7001882B1, “Muteins of bilin-binding protein” (Pieris Proteolab AG, priority 1999, dated 2006).
